Reference: the supplement of paper PMC10126150
± gives the standard deviation of the averaged measurements.

Test system: ATP
Test: switch fluorescence ratio, 500 uM ATP over buffer (Cy3 cluster intensity, sum of 5 cycles each) (fold (ratio)); higher = stronger signal-on switching upon ATP binding; sequences stand for … in TCGTCGGCAGCGTCAGATGTGTATAAGAGACAGTTTTTTTTTTTTTTTTTTTTTTTTT…TC
Conditions: aptamer strand: ATP DNA aptamer (quencher-CACCTGGGGGAGTATTGCGGAGGAAGG + anchor), 100 nM annealed; ATP concentration: 500 uM
Summary of the method: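 Clusters with intensities outside 100-1000 RFU were excluded. The remaining Cy3-labelled switching-strand clusters on a modified Illumina MiSeq flow-cell had been annealed to 100 nM quencher-labelled ATP aptamer and imaged in selection buffer, then after 15 min with 500 uM ATP at 22 °C, for five cycles separated by NaOH stripping and re-annealing. The fluorescence ratio, averaged per switch-domain sequence, is each cluster's summed target-cycle Cy3 intensity over its summed buffer-cycle Cy3 intensity.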
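Note: ATP exposure 15 min at 22 °C before imaging.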

| Sequence | switch fluorescence ratio |
| --- | --- |
| TTACGGTCCA | 1.05 ± 0.017 |
| TTCTCCGGGT | 1.24 ± 0.32 |
| AGGGCAATGT | 1.11 ± 0.032 |
| GCAATATGTA | 1.62 ± 0.11 |
| CGCGGCTATT | 1.07 ± 0.034 |
| TGGGGTATAC | 1.02 ± 0.038 |
| GTAATGGAAT | 0.9912 ± 0.0078 |
| AAGAACGGCG | 1.01 ± 0.052 |
| GAGATGTCTT | 0.9833 ± 0.0078 |
| TTTCATTTGT | 1.02 ± 0.075 |
| GGATTCTTGG | 0.977 ± 0.024 |
| TTATTGACGT | 1.003 ± 0.0024 |
| GGGTCCAGGG | 1.228 ± 0.0082 |
| CAACCCATCT | 0.992 ± 0.042 |
| CGTTTTTCTT | 0.958 ± 0.05 |
| TTTTCATTAA | 0.9932 ± 0.008 |
| GTTTCGAGCG | 1.03 ± 0.013 |
| AACCTTTGTT | 1.06 ± 0.083 |
| GTTCTGAAGG | 1.02 ± 0.0029 |
| GGTAATTTTC | 1.11 ± 0.18 |
| AATTAAGGCA | 0.9756 ± 0.0065 |
| GAGTTGGTTT | 1 ± 0.022 |
| AGCTATAGTA | 0.991 ± 0.01 |

| Sequence | switch fluorescence ratio |
| --- | --- |
| AACGTGTTGT | 1.02 ± 0.077 |
| ATATTTAGTT | 1.01 ± 0.051 |
| AGGAGTTTTT | 0.98 ± 0.03 |
| GAGTGAAAGT | 0.99 ± 0.023 |
| GTTGTCGTGT | 1.01 ± 0.049 |
| GGGGAAGGAG | 0.977 ± 0.029 |
| GGGAATCGGT | 0.978 ± 0.058 |
| GTGGGGATTA | 1 ± 0.018 |
| AGTAGAATCG | 0.992 ± 0.033 |
| AGTAAAGGAA | 0.999 ± 0.014 |
| AGGGAGCTGT | 1.023 ± 0.0015 |
| GGGGCAATGT | 1.22 ± 0.05 |
| AAGTACGGTG | 1.19 ± 0.089 |
| TCATTGGGGA | 1.032 ± 0.0071 |
| GGTACCACTT | 0.992 ± 0.039 |
| CGAGTGGATG | 0.994 ± 0.018 |
| GGTTAGCGG | 0.9599 ± 0.0026 |
| CGACGATTTG | 1.01 ± 0.026 |
| TTCGTAGTTT | 0.964 ± 0.023 |
| AGAATCCTG | 0.995 ± 0.043 |
| CACTGATCCT | 1.032 ± 0.0032 |
| ATCCGTGATG | 1.11 ± 0.051 |
| TTATTTGAAT | 1.011 ± 0.0027 |

| Sequence | switch fluorescence ratio |
| --- | --- |
| GGAGTGGGGG | 0.984 ± 0.036 |
| CTGAAGCTGT | 2.64 ± 1.3 |
| TTTTCCAAAG | 1.01 ± 0.055 |
| AATTATGTAA | 0.988 ± 0.036 |
| TGGGATTTTT | 0.985 ± 0.031 |
| GGGTTGCTGG | 1 ± 0.03 |
| AAGTGGGAAT | 1.02 ± 0.013 |
| AAGTTTTGTT | 0.987 ± 0.023 |
| TCCTAAAAGT | 1.01 ± 0.021 |
| TAAGGGAATG | 0.985 ± 0.061 |
| TTCTGTATTG | 1.03 ± 0.035 |
| TCGTACTGGT | 0.99 ± 0.068 |
| GAGGGGCGTG | 1 ± 0.022 |
| GGGGTGATCT | 1.02 ± 0.034 |
| GCTATTTGGA | 0.997 ± 0.012 |
| TTACAGGGGA | 1.01 ± 0.044 |
| TCTGTTTGTT | 1.015 ± 0.01 |
| CAGTTGGGAC | 1 ± 0.054 |
| AAGGGTTGCT | 1.01 ± 0.042 |
| GCCTGGGGGA | 1.07 ± 0.12 |
| TTAGACATTT | 1.01 ± 0.026 |
| AAACGTATGT | 0.9984 ± 0.0079 |
| GTTTTTTATC | 1 ± 0.029 |

| Sequence | switch fluorescence ratio |
| --- | --- |
| CTTGGCTGTT | 0.986 ± 0.018 |
| TTAGGGCGAC | 1 ± 0.044 |
| GGGGGATTAA | 1 ± 0.017 |
| CGAAGAGGCG | 0.997 ± 0.052 |
| GTGCCTTTGC | 1.11 ± 0.067 |
| CGGAGATTAC | 2.25 ± 0.035 |
| CGATCGGTAC | 3.3 ± 0.38 |
| CGATGGTCTG | 0.9872 ± 0.0018 |
| GGCGGATGGG | 1.02 ± 0.026 |
| GGGGGAATTG | 1.02 ± 0.075 |
| TAATCTTGGG | 1 ± 0.011 |
| GTAAGGGATA | 0.988 ± 0.031 |
| ATATGGTCGT | 0.998 ± 0.017 |
| CTTAGATTTG | 0.9655 ± 0.0076 |
| GGGACATTTT | 1.026 ± 0.0086 |
| TAGGATGGGC | 1.04 ± 0.04 |
| GGGAGGTGGG | 1.009 ± 0.0014 |
| TGGTAAAGGC | 0.979 ± 0.042 |
| GGTAAAAGTC | 1.01 ± 0.012 |
| AAAGTGTTTT | 0.995 ± 0.051 |
| GGGGGCAGAA | 0.983 ± 0.018 |
| TGTGAGGCGT | 0.993 ± 0.0036 |
| TGGCGGGGTC | 0.9992 ± 0.0094 |

| Sequence | switch fluorescence ratio |
| --- | --- |
| CCGCTAAGGT | 1.39 ± 0.092 |
| GCTATGTGGG | 1.003 ± 0.0041 |
| TCTAAAATTT | 1.15 ± 0.18 |
| TGCTTTTGGT | 0.988 ± 0.022 |
| AAGATGCGTA | 0.978 ± 0.016 |
| ACTTGGACGT | 1.05 ± 0.048 |
| TATGTTGTGA | 0.9902 ± 0.0039 |
| ATTTGATCGA | 1.02 ± 0.075 |
| CGTGGGTGTT | 0.946 ± 0.015 |
| ATTTTGCAAT | 1.27 ± 0.037 |
| GTTTACTTTT | 0.986 ± 0.013 |
| TGATTGCCCG | 0.9376 ± 0.0077 |
| ACTGAAGTTA | 0.98 ± 0.018 |
| GACTGGGTTG | 0.9668 ± 0.0011 |
| CCAGGTTAAT | 1.036 ± 0.0033 |
| GCAAAACGTA | 1.012 ± 0.009 |
| GCGTTCGGGC | 1 ± 0.029 |
| AGGGGGGGCT | 0.985 ± 0.024 |
| GTAATACTTG | 1.079 ± 0.01 |
| TTCAGGTTTC | 1 ± 0.037 |
| GGGGGTTAGA | 1 ± 0.035 |
| TCTTGGGTAT | 0.986 ± 0.035 |
| CAGGAGCATT | 3.09 ± 1.5 |

| Sequence | switch fluorescence ratio |
| --- | --- |
| AAGAGAAAGT | 0.998 ± 0.028 |
| TTAGAGGTTA | 0.98609 ± 0.00054 |
| GGGGGTTGCA | 0.965 ± 0.016 |
| GTTGAACGCG | 1.028 ± 0.0015 |
| TAGATGTTTA | 1.32 ± 0.6 |
| TAGGTTCCGG | 0.993 ± 0.034 |
| TGCAGTGTGC | 1.01 ± 0.015 |
| TCGCTGGGAT | 1.2 ± 0.27 |
| AATGCAGTGC | 1.26 ± 0.09 |
| GAGGAATGGC | 0.9828 ± 0.0022 |
| GTATGAAATG | 0.999 ± 0.022 |
| TCTCGGCTGG | 0.9962 ± 0.001 |
| ATCTCGCGCA | 1.36 ± 0.11 |
| GTGGACGGGG | 0.983 ± 0.033 |
| GGATTTATTT | 1.06 ± 0.026 |
| TTGGTCTTGT | 1.001 ± 0.006 |
| GTTAGAGTAT | 1 ± 0.012 |
| ATAGGACGCA | 1.265 ± 0.0027 |
| TACGGGGACA | 1.07 ± 0.055 |
| TCCAGGATAT | 1.03 ± 0.046 |
| ACGCTAGGGC | 1.16 ± 0.039 |
| GCTCAACAGA | 1.022 ± 0.0057 |
| GTGGGTTAGG | 0.996 ± 0.031 |

| Sequence | switch fluorescence ratio |
| --- | --- |
| TGTTTGTAGA | 1.03 ± 0.018 |
| GTACGTAGGC | 1.03 ± 0.06 |
| GATGACAGTG | 0.969 ± 0.083 |
| TTAATTATGA | 0.991 ± 0.012 |
| CGTGCTGTT | 1.01 ± 0.027 |
| TCGTGTTGTT | 0.969 ± 0.021 |
| TGGTGCCCAC | 1.01 ± 0.027 |
| TTTTGAGTTA | 0.976 ± 0.039 |
| GCGCTGGTTT | 0.99 ± 0.034 |
| CCCTTGCGGT | 1.03 ± 0.047 |
| GTGTACGCTG | 0.988 ± 0.027 |
| TTTTTCTCCC | 1.03 ± 0.049 |
| TACGGAGGGT | 1.22 ± 0.31 |
| TAAGGCCACG | 0.9975 ± 0.0099 |
| TTTTGTGCGG | 0.98 ± 0.042 |
| CGTATAGGAT | 1.01 ± 0.036 |
| TTTGGCTTCG | 1.042 ± 0.0038 |
| TTTTTATCCA | 0.976 ± 0.026 |
| TGCTGGGGAC | 0.992 ± 0.051 |
